# Laboratory results: US20250011363A1, “OPTIMIZED SHORTENED PEPTIDE THAT BINDS TO ACETYLCHOLINE RECEPTOR, AND USE THEREOF” (SKINMED CO., LTD., priority 2021, published 2025)
# Biological target: acetylcholine receptor
# Test: SPR, receptor immobilized, peptide 10 uM
row,Binding affinity (RU),Binder
1,29,RMTERK [6mer-2-848]
2,14,KEPMRR [6mer-2-856]
3,17,REHVRR [6mer-2-893]
4,30,RTPNRR [6mer-2-868]
5,18,RCPKKR [6mer-2-887]
6,22,RTNEKR [6mer-2-883]
7,23,RCNWKR [6mer-2-854]
8,15,RTPAKR [6mer-2-882]
9,17,KPPERR [6mer-2-877]
10,17,KEDNKR [6mer-2-876]
11,27,KHEHK [5mer-1053]
12,33,KIHFRK [6mer-2-874]
13,12,RTHHKK [6mer-2-880]
14,31,REMPKR [6mer-2-871]
15,22,RDPKKK [6mer-2-844]
16,32,REDFRR [6mer-2-837]
17,13,RIDHRK [6mer-2-875]
18,17,RNDWR [5mer-1052]
19,30,RKTPK [5mer-753]
20,24,KETVRR [6mer-2-878]
21,21,RMDFRK [6mer-2-859]
22,19,KFWWRR [6mer-2-851]
23,22,RFHWRR [6mer-2-894]
24,31,KPEDR [5mer-1050]
25,17,RPAHKK [6mer-2-897]
26,30,RDNPKR [6mer-2-890]
27,17,RIAKRK [6mer-2-888]

row,Binding affinity (RU),Binder
1,30,RTCARR [6mer-2-896]
2,16,KKKDKK [6mer-2-898]
3,19,RTMDRR [6mer-2-879]
4,13,RCTVRK [6mer-2-838]
5,32,KYWEKK [6mer-2-867]
6,28,RYAHR [5mer-1051]
7,15,KNWDR [5mer-755]
8,21,KDTDRK [6mer-2-861]
9,11,RCTPK [5mer-1056]
10,20,RYMMR [5mer-751]
11,27,KDENRK [6mer-2-892]
12,13,KEADK [5mer-750]
13,17,RKHWRR [6mer-2-863]
14,18,RHDHKR [6mer-2-869]
15,18,RCDWR [5mer-756]
16,33,KPNHRK [6mer-2-841]
17,15,KDWDRK [6mer-2-840]
18,19,REMIKR [6mer-2-855]
19,13,RNTAKK [6mer-2-849]
20,31,KPNFRR [6mer-2-860]
21,12,RKCAKK [6mer-2-864]
22,13,KTWVRR [6mer-2-886]
23,21,RNKVR [5mer-1054]
24,12,REWDKK [6mer-2-889]
25,28,RTSIRK [6mer-2-891]
26,16,KTSMKR [6mer-2-850]
27,29,KPPGR [5mer-1049]

row,Binding affinity (RU),Binder
1,28,RNCERR [6mer-2-852]
2,28,KYMAKK [6mer-2-895]
3,11,KNWGRR [6mer-2-873]
4,30,KEEHRR [6mer-2-858]
5,33,KAPDRK [6mer-2-843]
6,14,KMKEKR [6mer-2-845]
7,29,RKNER [5mer-754]
8,24,KHTWR [5mer-749]
9,29,RHTFKK [6mer-2-862]
10,24,RDNPKK [6mer-2-866]
11,21,KMTEKK [6mer-2-870]
12,30,RFSFKR [6mer-2-846]
13,16,RHCNRK [6mer-2-865]
14,15,KHHEK [5mer-1055]
15,22,RYCHKR [6mer-2-847]
16,20,KHTEKK [6mer-2-857]
17,26,KAWVK [5mer-752]
18,32,KNHNRR [6mer-2-839]
19,26,KNTMKR [6mer-2-836]
20,22,KPKMRR [6mer-2-842]
21,29,KHTGRR [6mer-2-853]
22,28,KTHFRK [6mer-2-872]
23,33,KDTEKK [6mer-2-881]
24,17,KCMVRR [6mer-2-885]
25,11,KMTMKK [6mer-2-884]
